From IntAct's records for PubMed 19172752

B1: General transcription factor IIH subunit 4 (Homo sapiens), Q92759 (parent)
chain: MESTPSRGLNRVHLQCRNLQEFLGGLSPGVLDRLYGHPATCLAVFRELPSLAKNWVMRMLFLEQPLPQAAVALWVKKEFSKAQEESTGLLSGLRIWHTQLLPGGLQGLILNPIFRQNLRIALLGGGKAWSDDTSQLGPDKHARDVPSLDKYAEERWEVVLHFMVGSPSAAVSQDLAQLLSQAGLMKSTEPGEPPCITSAGFQFLLLDTPAQLWYFMLQYLQTAQSRGMDLVEILSFLFQLSFSTLGKDYSVEGMSDSLLNFLQHLREFGLVFQRKRKSRRYYPTRLAINLSSGVSGAGGTVHQPGFIVVETNYRLYAYTESELQIALIALFSEMLYRFPNMVVAQVTRESVQQAIASGITAQQIIHFLRTRAHPVMLKQTPVLPPTITDQIRLWELERDRLRFTEGVLYNQFLSQVDFELLLAHARELGVLVFENSAKRLMVVTPAGHSDVKRFWKRQKHSS
partner: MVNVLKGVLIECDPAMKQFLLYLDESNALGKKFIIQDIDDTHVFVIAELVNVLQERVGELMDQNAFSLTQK

Variants of: B1
Details: with tf2h5_human GTF2H5, Q6ZYL4

effect of a mutation on the interaction	Variant
decreasing interaction	MESTPSRGLNRVHLQCRNLQEFLGGLSPGVLDRLYGHPATCLAVFRELPSLAKNWVMRMLFLEQPLPQAAVALWVKKEFSKAQEESTGLLSGLRIWHTQLLPGGLQGLILNPIFRQNLRIALLGGGKAWSDDTSQLGPDKHARDVPSLDKYAEERWEVVLHFMVGSPSAAVSQDLAQLLSQAGLMKSTEPGEPPCITSAGFQFLLLDTPAQLWYFMLQYLQTAQSRGMDLVEILSFLFQLSFSTLGKDYSVEGMSDSLLNFLQHLREFGLVFQRKRKSRRYYPTRLAINLSSGVSGAGGTVHQPGFIVVETNYRLYAYTESELQIALIALFSEMLYRFPNMVVAQVTRESVQQAIASGITAQQIIHFLRTRAHPVMLKQTPVLPPTITDQIRLWELERDRLRFTEGVLYNQFLSQVDFELLLAHARELGVLVFENSAAALMVVTPAGHSDVKRFWKRQKHSS [K438A;R439A]
